What all share (assay): ELISA
Background: ELISA stands for enzyme-linked immunosorbent assay.

Assay [1] addresses T1, DENV-2 EDIII wild-type Fc-fusion antigen (dengue virus serotype 2 (DENV-2), …).
T1 chain: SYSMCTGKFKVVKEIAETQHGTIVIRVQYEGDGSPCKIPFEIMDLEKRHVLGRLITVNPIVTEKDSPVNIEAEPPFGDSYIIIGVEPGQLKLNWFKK

Assay [2] has as its target soluble DENV-2 envelope protein (D2E80) (dengue virus serotype 2 (DENV-2), …).
Assay [3] addresses soluble E80 protein of DENV-3 (dengue virus serotype 3 (DENV-3)).
For assay [4], the target named is soluble E80 protein of DENV-1 (dengue virus serotype 1 (DENV-1)).
Another assay addresses R3N_2D3.
A further assay deals with R2N_1G11.

Where only a bound is given, the exact number is not on record here.

B1: 2H12 mouse antibody (antibody, V domains shown)
VH: DVQLVEPGAELVQPGASVKMSCKASGYTFSSYWINWEKQRPGKGLEWIGNIYPGSGTVNYDDKFKSKATLTIDTSSNTAYMQLSSLTSEDSAVYYCTRGGSHAMDYWGQGTSVTVSS
VL: DIVMTQSQKFMSTSVGDRVSITCKASQNVRTSVAWYQQKPGQSPKALIYLASNRHTGVPDRFTGSGSGTDFTLTISNVQSEDLADYFCLQHWTYPYTFGGGTKLEIK
As usually defined, the Kd is the concentration at which binding is half-saturated. On to B1, for which the Kd in assay [1] was 0.39 nM.

B2: 513 engineered and humanized antibody (antibody, V domains shown)
VH: QVQLVQSGAEVKKPGASVKVSCKAGFNIKDVYMSWVRQAPEQGLEWMGRIDPENGDTKYDPKLQGRVTMTADTSTNTAYMELRSLRSDDTAVYYCARGWEGFAYWGQGTLVTVSS
VL: DIVMTQSPASLAVSLGQRATISCRASENVDKYGNSFMHWYQQKPGQPPKLLIYRASELQWGVPDRFSGSGSGTDFTLTISSLQAEDVAVYYCQRSNEVPWTFGQGTKLEIK
For B2, the equilibrium dissociation constant (Kd) in assay [1] is 0.066 nM; in assay [2] it was 0.087 nM; in assay [3], 0.46 nM; in assay [4], 0.054 nM.

B3: 3H5 mouse antibody (antibody, V domains shown)
VH: QVQLQQSGAEVARPGASVKLSCKASGYTFTSYWLQWVKQRPGQGLEWIGAIWPGDDDTRYAQKFQGKATMTADKSSSTAYIQLSNLASEDSAVYYCARKGGFAMDYWGQGTSVTVSS
VL: NIVMTQSPTSLAVSLGQRATISCRASESVDSFGKSFMHFYQQKPGQPPKLLIHLASNLESGVPARFTGRGSRTDFTLTIDPVEADDAATYYCQQNNEVPFTFGSGTKLEVK
On to B3, for which the equilibrium dissociation constant (Kd) in assay [1] came to 1.06 nM.

B4: soluble E80 protein of DENV-4 (domain or fragment)
chain: MRCVGVGNRDFVEGVSGGAWVDLVLEHGGCVTTMAQGKPTLDFELIKTTAKEVALLRTYCIEASISNITTATRCPTQGEPYLKEEQDQQYICRRDVVDRGWGNGCGLFGKGGVVTCAKFSCSGKITGNLVQIENLEYTVVVTVHNGDTHAVGNDIPNHGVTATITPRSPSVEVKLPDYGELTLDCEPRSGIDFNEMILMKMKKKTWLVHKQWFLDLPLPWAAGADTSEVHWNYKERMVTFKVPHAKRQDVTVLGSQEGAMHSALTGATEVDSGDGNHMFAGHLKCKVRMEKLRIKGMSYTMCSGKFSIDKEMAETQHGTTVVKVKYEGAGAPCKVPIEIRDVNKEKVVGRIISSTPFAEYTNSVTNIELEPPFGDSYIVIGVGDSALTLHWFRKG
Turning to B4, the figures for the dissociation constant (Kd) with R3N_2D3 and in the assay with R2N_1G11 were 0.32 nM and above 67 nM, respectively.

B5: 2C8 mouse antibody (antibody, V domains shown)
VH: EVKLVESGGGLVQPGGSLSLSCAASGFTFTDYYMTWVRQPPGKALEWLALIRNKASGYTTEYSASVKGRFTISRDNSQSILYLQMNALRAEDSATYYCTRAKWDGHYFDYWGQGTTLTVSS
VL: DIQMTQSPASLSVSVGETVTITCRATKNIYNNLAWYQQKQGRSPQLLVYAATNLADGVPSRFSGSGSGTQFSLRINSLQSEDFGNYYCQHFWHTPWTFGGGTKLEIK
B5 returned an equilibrium dissociation constant (Kd) in assay [1] of 0.22 nM.

Source of the values: paper PMC11320570 (2024).
